Experimental data from FireProtDB (doi:10.1021/bi020450z).

Details: Bos taurus; pH 8.5; Thermal; CD; Glycine; reversible: YES; whole UniProt chain shown

B1: Adrenodoxin, mitochondrial wild type, P00257 (protein)
chain: MAARLLRVASAALGDTAGRWRLLARPRAGAGGLRGSRGPGLGGGAVATRTLSVSGRAQSSSEDKITVHFINRDGETLTTKGKIGDSLLDVVVQNNLDIDGFGACEGTLACSTCHLIFEQHIFEKLEAITDEENDMLDLAYGLTDRSRLGCQICLTKAMDNMTVRVPDAVSDARESIDMGMNSSKIE
With B1 the Tm was 51.9 °C.
